In one data set the test system is biotinyl-Phe-oxazolone. Briefly: self-aminoacylation, catalytic enhancement (BFO) (fold over background); higher = more active; k-Seq, kA / k0A0; sequences stand for … in GGGAAUGGAUCCACAUCUACGAAUUC…UUCACUGCAGACUUGACGAAGCUG
The procedure, abridged: (§1)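 The uncatalyzed rate is the low-activity peak of a bimodal Gaussian fit, and catalytic enhancement is median kA divided by it. The kA values came from pseudo-first-order fits, with 1000 bootstraps, of per-sequence fraction reacted measured by streptavidin capture, triplicate qPCR and Illumina sequencing. Mutagenized RNA pools with a 21-nt variable region (0.43 μM) were reacted with each biotinyl-aminoacyl-oxazolone at 2–1250 μM in 50 μL HEPES/NaCl/KCl/MgCl2/CaCl2 buffer with 5% acetonitrile, pH 6.9–7.0, for 90 minutes at room temperature.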

For the next data set, the system named is biotinyl-Ile-oxazolone. Briefly: self-aminoacylation, catalytic enhancement (BIO) (fold over background); higher = more active; k-Seq, kA / k0A0; sequences stand for … in GGGAAUGGAUCCACAUCUACGAAUUC…UUCACUGCAGACUUGACGAAGCUG
The procedure, abridged:
as §1

Another data set concerns biotinyl-Met-oxazolone. Briefly: self-aminoacylation, catalytic enhancement (BMO) (fold over background); higher = more active; k-Seq, kA / k0A0; sequences stand for … in GGGAAUGGAUCCACAUCUACGAAUUC…UUCACUGCAGACUUGACGAAGCUG
The procedure, abridged:
as §1

The subject of the next data set is biotinyl-Val-oxazolone. Kind of data set: self-aminoacylation, catalytic enhancement (BVO) (fold over background); higher = more active; k-Seq, kA / k0A0; sequences stand for … in GGGAAUGGAUCCACAUCUACGAAUUC…UUCACUGCAGACUUGACGAAGCUG
Summed up:
as §1

For another data set, the system named is biotinyl-Leu-oxazolone. Briefly: self-aminoacylation, catalytic enhancement (BLO) (fold over background); higher = more active; k-Seq, kA / k0A0; sequences stand for … in GGGAAUGGAUCCACAUCUACGAAUUC…UUCACUGCAGACUUGACGAAGCUG
The procedure, abridged:
as §1

In a further data set the test system is biotinyl-Trp-oxazolone. Kind of data set: self-aminoacylation, catalytic enhancement (BWO) (fold over background); higher = more active; k-Seq, kA / k0A0; sequences stand for … in GGGAAUGGAUCCACAUCUACGAAUUC…UUCACUGCAGACUUGACGAAGCUG
Summed up: as §1

Among the data in the supplement of paper PMC9233669 are self-aminoacylation values, retold here.

This sample holds only a part of the variants without activity.

On to “CCACACUUCAAGCAAUCCGUA [Fam1B.1 aminoacylation ribozyme variant]”, for which the self-aminoacylation with biotinyl-Phe-oxazolone came to 0.597; with biotinyl-Ile-oxazolone it was 0.876; in the data set on biotinyl-Met-oxazolone it was 0.668; in the data set with biotinyl-Val-oxazolone, 1.04; with biotinyl-Leu-oxazolone it was 0.927; in the data set on biotinyl-Trp-oxazolone it was 0.837.

As to “CCACACUUCAAGCAAUCCGUG [Fam1B.1 aminoacylation ribozyme variant]”, the self-aminoacylation worked out at 26.9 with biotinyl-Phe-oxazolone; 2.79 in the data set with biotinyl-Ile-oxazolone; 3.21 in the data set on biotinyl-Met-oxazolone; 2.47 with biotinyl-Val-oxazolone; 5.32 with biotinyl-Leu-oxazolone; 2.78 with biotinyl-Trp-oxazolone.

Take “CCACACUUCAAGCAAUCGCGC [Fam1B.1 aminoacylation ribozyme variant]”: the self-aminoacylation stood at 6.7 in the data set on biotinyl-Phe-oxazolone; 2.08 in the data set on biotinyl-Ile-oxazolone; 2.16 in the data set on biotinyl-Met-oxazolone; 3.35 in the data set with biotinyl-Val-oxazolone; 3.04 in the data set with biotinyl-Leu-oxazolone; 2.44 with biotinyl-Trp-oxazolone.

Turning to “CCACACUUCAAGCAAUCGGCA [Fam1B.1 aminoacylation ribozyme variant]”, the self-aminoacylation with biotinyl-Phe-oxazolone is 1.07; in the data set with biotinyl-Ile-oxazolone it was 1.18; with biotinyl-Met-oxazolone it was 0.777; with biotinyl-Val-oxazolone, 1.37; with biotinyl-Leu-oxazolone, 1.59; in the data set with biotinyl-Trp-oxazolone, 1.28.

As to “CCACACUUCAAGCAAUCGGGA [Fam1B.1 aminoacylation ribozyme variant]”, the self-aminoacylation in the data set on biotinyl-Phe-oxazolone stood at 1.46; with biotinyl-Ile-oxazolone it was 1.55; with biotinyl-Met-oxazolone, 1.51; in the data set on biotinyl-Val-oxazolone, 1.8; in the data set with biotinyl-Leu-oxazolone it was 1.04; in the data set on biotinyl-Trp-oxazolone, 1.87.

For “CCACACUUCAAGCAAUCGGGG [Fam1B.1 aminoacylation ribozyme variant]”, the self-aminoacylation in the data set with biotinyl-Phe-oxazolone came out at 1.38; in the data set with biotinyl-Ile-oxazolone it was 1.71; in the data set with biotinyl-Met-oxazolone, 1.21; in the data set with biotinyl-Val-oxazolone, 2.19; with biotinyl-Leu-oxazolone it was 2.28; with biotinyl-Trp-oxazolone, 2.3.

Regarding “CCACACUUCAAGCAAUCGGGU [Fam1B.1 aminoacylation ribozyme variant]”, the self-aminoacylation in the data set on biotinyl-Phe-oxazolone stood at 0.915; in the data set with biotinyl-Ile-oxazolone it was 1.51; in the data set on biotinyl-Met-oxazolone, 1.41; in the data set with biotinyl-Val-oxazolone, 1.8; with biotinyl-Leu-oxazolone, 1.87; with biotinyl-Trp-oxazolone, 1.06.

As to “CCACACUUCAAGCAAUCGGUG [Fam1B.1 aminoacylation ribozyme variant]”, the self-aminoacylation in the data set with biotinyl-Phe-oxazolone was 17.1; with biotinyl-Ile-oxazolone it was 3.68; in the data set on biotinyl-Met-oxazolone it was 5.19; with biotinyl-Val-oxazolone, 3.68; with biotinyl-Leu-oxazolone, 7.2; with biotinyl-Trp-oxazolone, 5.45.

As for “CCACACUUCAAGCAAUCGUUC [Fam1B.1 aminoacylation ribozyme variant]”, the self-aminoacylation in the data set with biotinyl-Phe-oxazolone turned out to be 1.31; in the data set with biotinyl-Ile-oxazolone, 0.714; in the data set on biotinyl-Met-oxazolone, 0.57; in the data set with biotinyl-Val-oxazolone it was 0.845; in the data set with biotinyl-Leu-oxazolone, 0.579; in the data set with biotinyl-Trp-oxazolone it was 0.675.

On to “CCACACUUCAAGCAAUCGUUG [Fam1B.1 aminoacylation ribozyme variant]”, for which the self-aminoacylation came out at 1.26 in the data set with biotinyl-Phe-oxazolone; 0.944 in the data set on biotinyl-Ile-oxazolone; 0.877 in the data set on biotinyl-Met-oxazolone; 0.908 with biotinyl-Val-oxazolone; 0.776 in the data set on biotinyl-Leu-oxazolone; 1.15 in the data set on biotinyl-Trp-oxazolone.

On to “CCACACUUCAAGCAAUCUGUC [Fam1B.1 aminoacylation ribozyme variant]”, for which the self-aminoacylation in the data set with biotinyl-Phe-oxazolone amounted to 0.824; in the data set on biotinyl-Ile-oxazolone, 0.368; in the data set on biotinyl-Met-oxazolone it was 0.34; in the data set on biotinyl-Val-oxazolone it was 0.518; in the data set on biotinyl-Leu-oxazolone, 0.327; with biotinyl-Trp-oxazolone, 0.369.

Consider “CCACACUUCAAGCAAUUGGAC [Fam1B.1 aminoacylation ribozyme variant]”, for which the self-aminoacylation stood at 0.614 with biotinyl-Phe-oxazolone; 0.72 with biotinyl-Ile-oxazolone; 0.664 in the data set on biotinyl-Met-oxazolone; 0.697 with biotinyl-Val-oxazolone; 0.583 in the data set with biotinyl-Leu-oxazolone; 0.337 with biotinyl-Trp-oxazolone.

In the case of “CCACACUUCAAGCAAUUGGUC [Fam1B.1 aminoacylation ribozyme variant]”, the self-aminoacylation is 1.43 in the data set with biotinyl-Phe-oxazolone; 0.702 in the data set on biotinyl-Ile-oxazolone; 0.625 with biotinyl-Met-oxazolone; 0.707 with biotinyl-Val-oxazolone; 0.594 in the data set on biotinyl-Leu-oxazolone; 0.858 in the data set with biotinyl-Trp-oxazolone.

As to “CCACACUUCAAGCACUUGGUC [Fam1B.1 aminoacylation ribozyme variant]”, the self-aminoacylation in the data set with biotinyl-Phe-oxazolone is 1.03; with biotinyl-Ile-oxazolone it was 0.816; with biotinyl-Met-oxazolone, 0.775; in the data set with biotinyl-Val-oxazolone, 0.65; with biotinyl-Leu-oxazolone it was 0.818; in the data set on biotinyl-Trp-oxazolone, 0.616.

For the sequence “CCACACUUCAAGCAGUAGGUC [Fam1B.1 aminoacylation ribozyme variant]”, the self-aminoacylation was 0.807 in the data set on biotinyl-Phe-oxazolone; 0.633 with biotinyl-Ile-oxazolone; 0.425 in the data set with biotinyl-Met-oxazolone; 0.815 in the data set with biotinyl-Val-oxazolone; 0.51 with biotinyl-Leu-oxazolone; 0.401 with biotinyl-Trp-oxazolone.

In the case of “CCACACUUCAAGCAGUCGGUC [Fam1B.1 aminoacylation ribozyme variant]”, the self-aminoacylation with biotinyl-Phe-oxazolone was found to be 1.1; in the data set on biotinyl-Ile-oxazolone it was 0.849; with biotinyl-Met-oxazolone, 0.724; with biotinyl-Val-oxazolone, 0.878; in the data set on biotinyl-Leu-oxazolone, 0.783; in the data set with biotinyl-Trp-oxazolone, 0.712.

As for “CCACACUUCAAGCAGUCGGUG [Fam1B.1 aminoacylation ribozyme variant]”, the self-aminoacylation with biotinyl-Phe-oxazolone was 18.4; with biotinyl-Ile-oxazolone, 2.18; in the data set on biotinyl-Met-oxazolone, 2.34; with biotinyl-Val-oxazolone, 2.29; with biotinyl-Leu-oxazolone, 3.56; in the data set with biotinyl-Trp-oxazolone, 2.1.

For the sequence “CCACACUUCAAGCAGUCUGUC [Fam1B.1 aminoacylation ribozyme variant]”, the self-aminoacylation in the data set with biotinyl-Phe-oxazolone came to 0.562; with biotinyl-Ile-oxazolone, 0.339; with biotinyl-Met-oxazolone, 0.383; in the data set with biotinyl-Val-oxazolone, 0.478; with biotinyl-Leu-oxazolone, 0.353; with biotinyl-Trp-oxazolone, 0.305.

As to “CCACACUUCAAGCAUACGGUC [Fam1B.1 aminoacylation ribozyme variant]”, the self-aminoacylation with biotinyl-Phe-oxazolone turned out to be 0.63; in the data set with biotinyl-Ile-oxazolone, 0.564; in the data set on biotinyl-Met-oxazolone, 0.538; in the data set on biotinyl-Val-oxazolone, 0.836; with biotinyl-Leu-oxazolone, 0.501; with biotinyl-Trp-oxazolone, 0.453.

On to “CCACACUUCAAGCCAUAGGUC [Fam1B.1 aminoacylation ribozyme variant]”, for which the self-aminoacylation with biotinyl-Phe-oxazolone was found to be 0.805; with biotinyl-Ile-oxazolone, 0.812; with biotinyl-Met-oxazolone, 0.622; in the data set on biotinyl-Val-oxazolone, 0.688; with biotinyl-Leu-oxazolone, 0.632; in the data set on biotinyl-Trp-oxazolone, 0.633.

For “CCACACUUCAAGCCAUCGGUA [Fam1B.1 aminoacylation ribozyme variant]”, the self-aminoacylation in the data set on biotinyl-Phe-oxazolone is 0.774; with biotinyl-Ile-oxazolone, 1.53; in the data set with biotinyl-Met-oxazolone, 1.7; in the data set with biotinyl-Val-oxazolone it was 1.4; in the data set on biotinyl-Leu-oxazolone, 1.88; with biotinyl-Trp-oxazolone, 1.05.

Take “CCACACUUCAAGCCAUCUGUC [Fam1B.1 aminoacylation ribozyme variant]”: the self-aminoacylation with biotinyl-Phe-oxazolone came out at 0.711; in the data set on biotinyl-Ile-oxazolone, 0.493; with biotinyl-Met-oxazolone it was 0.542; in the data set on biotinyl-Val-oxazolone, 0.72; in the data set with biotinyl-Leu-oxazolone, 0.401; with biotinyl-Trp-oxazolone, 0.498.

“CCACACUUCAAGCCGUCGGUC [Fam1B.1 aminoacylation ribozyme variant]”: the self-aminoacylation in the data set with biotinyl-Phe-oxazolone came out at 0.678; with biotinyl-Ile-oxazolone, 1.41; in the data set on biotinyl-Met-oxazolone it was 1.47; in the data set with biotinyl-Val-oxazolone it was 1.49; in the data set with biotinyl-Leu-oxazolone, 1.57; with biotinyl-Trp-oxazolone, 1.

As for “CCACACUUCAAGCUAUAGGUC [Fam1B.1 aminoacylation ribozyme variant]”, the self-aminoacylation with biotinyl-Phe-oxazolone was determined as 0.975; with biotinyl-Ile-oxazolone, 0.613; with biotinyl-Met-oxazolone it was 0.513; with biotinyl-Val-oxazolone, 0.806; in the data set on biotinyl-Leu-oxazolone, 0.489; in the data set on biotinyl-Trp-oxazolone it was 0.508.

On to “CCACACUUCAAGCUAUCGGUA [Fam1B.1 aminoacylation ribozyme variant]”, for which the self-aminoacylation in the data set with biotinyl-Phe-oxazolone stood at 0.934; with biotinyl-Ile-oxazolone, 1.16; in the data set with biotinyl-Met-oxazolone, 0.992; in the data set on biotinyl-Val-oxazolone it was 1.18; in the data set on biotinyl-Leu-oxazolone it was 1.28; in the data set on biotinyl-Trp-oxazolone it was 1.29.
